In article PMC8142254, “The mycobacterial proteasomal ATPase Mpa forms a gapped ring to engage the 20S proteasome” (The Journal of Biological Chemistry, 2021) one finds percent of 20SOG CPs bound to Mpa hexamer data, which are given here for one molecule.

Test [1] addresses Mycobacterium tuberculosis open-gate 20S proteasome core particle (20SOG CP) (Mycobacterium tuberculosis) (UniProt P9WHU1). Nature of the test: negative-stain EM; 2 M equivalents of Mpa hexamer, 3 M equivalents of Pup and 1 M equivalent of 20SOG CP with 3 mM ATP on ice for 40 min; 2D class averages of side views, capped versus uncapped CPs counted.
The target is the same in test [2]. Nature of the test: negative-stain EM; 2 M equivalents of Mpa hexamer, 3 M equivalents of Pup and 1 M equivalent of 20SOG CP with 3 mM ADP on ice for 40 min; 2D class averages of side views, capped versus uncapped CPs counted.

Sequence of Mycobacterium tuberculosis open-gate 20S proteasome core particle (20SOG CP) (Mycobacterium tuberculosis) (P9WHU1 whole entry, chain 1 of 2): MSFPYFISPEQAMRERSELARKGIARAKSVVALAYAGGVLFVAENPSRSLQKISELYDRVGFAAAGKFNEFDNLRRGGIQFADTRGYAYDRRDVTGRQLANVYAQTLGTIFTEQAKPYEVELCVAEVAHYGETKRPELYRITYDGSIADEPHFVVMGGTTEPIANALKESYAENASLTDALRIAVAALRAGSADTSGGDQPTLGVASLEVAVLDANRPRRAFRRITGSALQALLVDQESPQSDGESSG
Sequence of Mycobacterium tuberculosis open-gate 20S proteasome core particle (20SOG CP) (Mycobacterium tuberculosis) (P9WHT9 58-291, chain 2 of 2, further chain): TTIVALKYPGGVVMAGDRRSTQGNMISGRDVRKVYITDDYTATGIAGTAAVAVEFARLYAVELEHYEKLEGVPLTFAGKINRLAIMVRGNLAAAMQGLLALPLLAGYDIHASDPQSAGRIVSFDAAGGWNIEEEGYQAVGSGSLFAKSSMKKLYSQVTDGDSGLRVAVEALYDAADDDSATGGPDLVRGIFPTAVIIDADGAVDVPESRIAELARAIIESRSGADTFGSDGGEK

B1: Mycobacterium tuberculosis proteasomal ATPase Mpa, full-length (1–609) (enzyme)
chain: MGESERSEAFGIPRDSPLSSGDAAELEQLRREAAVLREQLENAVGSHAPTRSARDIHQLEARIDSLAARNSKLMETLKEARQQLLALREEVDRLGQPPSGYGVLLATHDDDTVDVFTSGRKMRLTCSPNIDAASLKKGQTVRLNEALTVVEAGTFEAVGEISTLREILADGHRALVVGHADEERVVWLADPLIAEDLPDGLPEALNDDTRPRKLRPGDSLLVDTKAGYAFERIPKAEVEDLVLEEVPDVSYADIGGLSRQIEQIRDAVELPFLHKELYREYSLRPPKGVLLYGPPGCGKTLIAKAVANSLAKKMAEVRGDDAHEAKSYFLNIKGPELLNKFVGETERHIRLIFQRAREKASEGTPVIVFFDEMDSIFRTRGTGVSSDVETTVVPQLLSEIDGVEGLENVIVIGASNREDMIDPAILRPGRLDVKIKIERPDAEAAQDIYSKYLTEFLPVHADDLAEFDGDRSACIKAMIEKVVDRMYAEIDDNRFLEVTYANGDKEVMYFKDFNSGAMIQNVVDRAKKNAIKSVLETGQPGLRIQHLLDSIVDEFAENEDLPNTTNPDDWARISGKKGERIVYIRTLVTGKSSSASRAIDTESNLGQYL
notes: Mpa (mycobacterial proteasome ATPase), Mycobacterium tuberculosis, full-length, residues 1-609; Homohexamer; In the cryo-EM model the coiled-coil domains and two of the six AAA domains are not resolved; also called mycobacterial proteasome ATPase; WT Mpa
On to B1, for which the percent of 20SOG CPs bound to Mpa hexamer was 37% in test [1] and 8% in test [2].
